Here are results for 5 proteins from patent US20100172938A1 (NEDERLANDSE ORGANISATIE VOOR TOEGEPAST …, published 2010).

Data set [1] concerns the molecule itself. The data set is described as follows: SDS-PAGE and western blot, self-association (dimer). The text has this:
To get further insight in the structure of SAN, vectors were constructed encoding C-terminally (SAN2, 4 and 6 carrying the first 159, 149 and 113 amino acids) or N-terminally truncated peptides (SAN7, 3 and 5 comprising the last 177, 151 and 141 amino acids). The truncated His-tagged genes were expressed in E. coli and the peptides SAN2, SAN4, SAN6 and SAN7 were purified by affinity chromatography. The peptides SAN3 and SAN5 were produced at very low levels and could not be purified probably due to increased sensitivity to E. coli proteases.
Three DNA fragments encoding C-terminally truncated SAN peptides were amplified by PCR with pBK1 (Boot et al., 1993) as template. Primer CEA1 (5′-[…]-3′, forward: SEQ ID NO. 26) was used in combination with primer SANA1 (5′-[…]-[…]-3′, reverse: SEQ ID NO. 27) to amplify SAN2, SANA2 (5′-[…]-3′, reverse: SEQ ID NO. 28) for SAN4 and SANA3 (5′-[…]-3′, reverse: SEQ ID NO. 29) for SAN6. Fragments encoding three N-terminally truncated peptides were amplified using primer SANB1 (5′-[…]-[…]-3′: SEQ ID NO. 30) for SAN3, SANB2 (5′-[…]-TT-[…]-3′: SEQ ID NO. 31) for SAN5 and SANB3 (5′-GGGGGG-[…]-3′: SEQ ID NO. 32) for SAN7, all three in combination with primer SAN1 (5′[…]-[…]-3′, reverse: SEQ ID NO. 33) and the same template. The fragments were cloned in pGEM-T and sequenced. The fragments encoding SAN2, SAN3, SAN4, SAN5, SAN6 and SAN7 were excised as BamHI-HindIII fragments and introduced in vector pQE30ΔXN (Smit et al., 2001) in frame with an N-terminal six histidine tag. Expression of gene fragments and purification of the gene products was performed as described previously (Smit et al., 2001).
For orientation: Immunoblotting shows a protein as a band on a membrane.

Data set [2] concerns the molecule itself. The data set is described as follows: SDS-PAGE and western blot, self-association.

B1: SAN7, N-terminally truncated SAN peptide, His-tagged (other)
chain: RGSHHHHHHGSGTSANSNVKFTGTNSDNQTETNVSTLKVKLDQNGVASLTNVSIANVYAINTTDNSNVNFYDVTSGATVTNGAVSVNADNQGQVNVANVVAAINSKYFAAQYADKKLNTRTANTEDAIKAALKDQKIDVNSVGYFKAPHTFTVNVKATSNTNGKSATLPVVVTVPNVAEPTVASVSKRI
For the protein B1, the binding result in data set [1] is “binds”.

B2: SAN4, C-terminally truncated SAN peptide carrying the first 149 amino acids, His-tagged (other)
chain: RGSHHHHHHGSGTATTINASSSAINTNTNAKYDVDVTPSVSAVAANTANNTPAIAGNLTGTISASYNGKTYTANLKADTENATITAAGSTTAVKPAELAAGVAYTVTVNDVSFNFGSENAGKTVTLGSANSNVKFTGTNSDNQTETNVSTLKVKLDQNGVAS
On to B2, for which the binding result in data set [1] is “binds”.

B3: SAN6, C-terminally truncated SAN peptide, His-tagged (other)
chain: RGSHHHHHHGSGTATTINASSSAINTNTNAKYDVDVTPSVSAVAANTANNTPAIAGNLTGTISASYNGKTYTANLKADTENATITAAGSTTAVKPAELAAGVAYTVTVNDVSFNFGSENAGKTVTLG
Consider B3, for which the binding result in data set [1] is “binds”.

B4: SAN2, C-terminally truncated SAN peptide carrying the first 159 amino acids, His-tagged (other)
chain: RGSHHHHHHGSGTATTINASSSAINTNTNAKYDVDVTPSVSAVAANTANNTPAIAGNLTGTISASYNGKTYTANLKADTENATITAAGSTTAVKPAELAAGVAYTVTVNDVSFNFGSENAGKTVTLGSANSNVKFTGTNSDNQTETNVSTLKVKLDQNGVASLTNVSIANVY
As to B4, the binding result in data set [1] is “binds”.

B5: SAN, crystallisation domain of SA-protein (amino acids 1-290), His-tagged (other)
chain: ATTINASSSAINTNTNAKYDVDVTPSVSAVAANTANNTPAIAGNLTGTISASYNGKTYTANLKADTENATITAAGSTTAVKPAELAAGVAYTVTVNDVSFNFGSENAGKTVTLGSANSNVKFTGTNSDNQTETNVSTLKVKLDQNGVASLTNVSIANVYAINTTDNSNVNFYDVTSGATVTNGAVSVNADNQGQVNVANVVAAINSKYFAAQYADKKLNTRTANTEDAIKAALKDQKIDVNSVGYFKAPHTFTVNVKATSNTNGKSATLPVVVTVPNVAEPTVASVSKRI
notes: Construct from Smit et al. 2001; not shown: His-tag (detected with anti-his antibody)
Regarding B5, the binding result in data set [2] is given as “binds”.
